Results: PMC12376267 (Chemistry (Weinheim an Der Bergstrasse, Germany), 2025)
Positions of bridges follow the written chain, without caps; N, C: chain ends.

T1: Recombinant mouse NELL2 (neural epidermal growth factor-like like 2) (mouse, UniProt Q61220 25-819)
T1 sequence (looked up): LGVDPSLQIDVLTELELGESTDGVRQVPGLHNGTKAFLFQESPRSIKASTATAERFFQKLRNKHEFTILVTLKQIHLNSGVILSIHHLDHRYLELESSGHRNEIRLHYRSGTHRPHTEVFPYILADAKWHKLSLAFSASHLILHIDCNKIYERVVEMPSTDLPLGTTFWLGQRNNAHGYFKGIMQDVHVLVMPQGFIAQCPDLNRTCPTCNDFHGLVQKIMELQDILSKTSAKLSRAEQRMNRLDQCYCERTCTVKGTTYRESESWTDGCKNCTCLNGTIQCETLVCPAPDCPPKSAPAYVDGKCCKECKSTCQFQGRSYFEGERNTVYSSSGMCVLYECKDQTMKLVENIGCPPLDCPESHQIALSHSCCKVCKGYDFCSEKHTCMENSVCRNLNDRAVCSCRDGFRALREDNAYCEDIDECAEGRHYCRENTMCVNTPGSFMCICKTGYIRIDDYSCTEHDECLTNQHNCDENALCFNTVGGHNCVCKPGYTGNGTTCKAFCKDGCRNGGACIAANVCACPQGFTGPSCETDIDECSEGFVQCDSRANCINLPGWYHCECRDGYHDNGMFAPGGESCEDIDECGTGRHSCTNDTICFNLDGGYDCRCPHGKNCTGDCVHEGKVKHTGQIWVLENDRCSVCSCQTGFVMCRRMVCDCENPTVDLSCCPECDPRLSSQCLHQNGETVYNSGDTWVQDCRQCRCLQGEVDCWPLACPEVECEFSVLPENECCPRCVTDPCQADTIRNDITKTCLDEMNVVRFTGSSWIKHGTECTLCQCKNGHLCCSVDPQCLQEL


Target: T1, Recombinant mouse NELL2 (neural …)
Assay: SPR

Kd [nM]	koff [s⁻¹]	kon [M⁻¹ s⁻¹]	Binder
61.7	0.00134	23500	Synthetic NICOL with the native SS bond pairing 3 (mouse NELL2-interacting cofactor for lumicrine signaling) (natural protein, disulfide 15-55, 18-57) EPATGSAVPAQSRPCVDCHAFEFMQRALQDLRKTAYSLDARTETLLLQAERRALCACWPAGR
145	0.00157	13800	Synthetic NICOL with the SS isomer 4 (mouse NICOL, non-native SS bond pairing) (natural protein, disulfide 15-57, 18-55) EPATGSAVPAQSRPCVDCHAFEFMQRALQDLRKTAYSLDARTETLLLQAERRALCACWPAGR
